{"source": "patent US20230288411A1", "about": "“POLYPEPTIDE, MULTIMER, SOLID PHASE, MEASUREMENT METHOD FOR TEST SUBSTANCE, AND REAGENT KIT” (SYSMEX CORPORATION, priority 2020, published 2023)", "key": {"[1]": {"biological_target": "TSH (thyroid stimulating hormone) in HISCL (trademark) TSH Calibrators C0 to C5 (Sysmex Corporation) (UniProt P01215)", "sequence (P01215 25-116, chain 1 of 2)": "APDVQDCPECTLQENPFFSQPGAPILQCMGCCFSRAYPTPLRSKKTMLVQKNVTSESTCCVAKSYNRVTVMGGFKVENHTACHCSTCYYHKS", "sequence (P01222 21-132, chain 2 of 2, further chain)": "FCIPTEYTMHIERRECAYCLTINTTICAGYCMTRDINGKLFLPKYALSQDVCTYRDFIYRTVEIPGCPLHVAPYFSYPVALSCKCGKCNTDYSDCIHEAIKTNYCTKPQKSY", "assay": "chemiluminescent sandwich ELISA on D-tamavidin 2-immobilized plate; TSH 2 µIU/mL"}, "[2]": {"biological_target": "TSH (thyroid stimulating hormone) in HISCL (trademark) TSH Calibrators C0 to C5 (Sysmex Corporation) (UniProt P01215)", "assay": "chemiluminescent sandwich ELISA on D-streptavidin-immobilized plate; TSH 2 µIU/mL"}, "[3]": {"biological_target": "TSH (thyroid stimulating hormone) in HISCL (trademark) TSH Calibrators C0 to C5 (Sysmex Corporation) (UniProt P01215)", "assay": "chemiluminescent sandwich ELISA on D-tamavidin 2-immobilized plate; TSH 10 µIU/mL"}, "[4]": {"biological_target": "TSH (thyroid stimulating hormone) in HISCL (trademark) TSH Calibrators C0 to C5 (Sysmex Corporation) (UniProt P01215)", "assay": "chemiluminescent sandwich ELISA on D-tamavidin 2-immobilized plate; TSH 50 µIU/mL"}, "[5]": {"biological_target": "TSH (thyroid stimulating hormone) in HISCL (trademark) TSH Calibrators C0 to C5 (Sysmex Corporation) (UniProt P01215)", "assay": "chemiluminescent sandwich ELISA on D-streptavidin-immobilized plate; TSH 10 µIU/mL"}, "[6]": {"biological_target": "TSH (thyroid stimulating hormone) in HISCL (trademark) TSH Calibrators C0 to C5 (Sysmex Corporation) (UniProt P01215)", "assay": "chemiluminescent sandwich ELISA on D-streptavidin-immobilized plate; TSH 50 µIU/mL"}, "[7]": {"biological_target": "TSH (thyroid stimulating hormone) in HISCL (trademark) TSH Calibrators C0 to C5 (Sysmex Corporation) (UniProt P01215)", "assay": "chemiluminescent sandwich ELISA on D-tamavidin 2-immobilized plate; TSH 120 µIU/mL"}, "[8]": {"biological_target": "TSH (thyroid stimulating hormone) in HISCL (trademark) TSH Calibrators C0 to C5 (Sysmex Corporation) (UniProt P01215)", "assay": "chemiluminescent sandwich ELISA on D-tamavidin 2-immobilized plate; TSH 200 µIU/mL"}, "[9]": {"biological_target": "TSH (thyroid stimulating hormone) in HISCL (trademark) TSH Calibrators C0 to C5 (Sysmex Corporation) (UniProt P01215)", "assay": "chemiluminescent sandwich ELISA on D-streptavidin-immobilized plate; TSH 120 µIU/mL"}, "[10]": {"biological_target": "TSH (thyroid stimulating hormone) in HISCL (trademark) TSH Calibrators C0 to C5 (Sysmex Corporation) (UniProt P01215)", "assay": "chemiluminescent sandwich ELISA on D-streptavidin-immobilized plate; TSH 200 µIU/mL"}, "[11]": {"biological_target": "TSH (thyroid stimulating hormone) in HISCL (trademark) TSH Calibrators C0 to C5 (Sysmex Corporation) (UniProt P01215)", "assay": "chemiluminescent sandwich ELISA on D-tamavidin 2-immobilized plate; TSH 0 µIU/mL (blank)"}, "[12]": {"biological_target": "TSH (thyroid stimulating hormone) in HISCL (trademark) TSH Calibrators C0 to C5 (Sysmex Corporation) (UniProt P01215)", "assay": "chemiluminescent sandwich ELISA on D-streptavidin-immobilized plate; TSH 0 µIU/mL (blank)"}, "[13]": {"biological_target": "TSH (thyroid stimulating hormone) in HISCL (trademark) TSH Calibrators C0 to C5 (Sysmex Corporation) (UniProt P01215)", "assay": "chemiluminescent sandwich ELISA on D-tamavidin 2-immobilized plate; TSH 50 µIU/mL, five samples"}, "[14]": {"biological_target": "TSH (thyroid stimulating hormone) in HISCL (trademark) TSH Calibrators C0 to C5 (Sysmex Corporation) (UniProt P01215)", "assay": "chemiluminescent sandwich ELISA on D-streptavidin-immobilized plate; TSH 50 µIU/mL, five samples"}}, "data": [{"substance": "L-biotin-labeled TSH antibody (thyroid stimulating hormone antibody T2-194, KITAYAMA LABES CO., LTD., labeled with L-biotin-AC5-OSu)", "values": [{"measurement": "Count value", "setting": "[1]", "value": 35300, "unit": "count"}, {"measurement": "Count value", "setting": "[2]", "value": 17300, "unit": "count"}, {"measurement": "Count value", "setting": "[3]", "value": 150000, "unit": "count"}, {"measurement": "Count value", "setting": "[4]", "value": 700000, "unit": "count"}, {"measurement": "Count value", "setting": "[5]", "value": 80400, "unit": "count"}, {"measurement": "Count value", "setting": "[6]", "value": 442000, "unit": "count"}, {"measurement": "Count value", "setting": "[7]", "value": "1.32e+06", "unit": "count"}, {"measurement": "Count value", "setting": "[8]", "value": "1.58e+06", "unit": "count"}, {"measurement": "Count value", "setting": "[9]", "value": 967000, "unit": "count"}, {"measurement": "Count value", "setting": "[10]", "value": "1.26e+06", "unit": "count"}, {"measurement": "Count value", "setting": "[11]", "value": 363, "unit": "count"}, {"measurement": "Count value", "setting": "[12]", "value": 1010, "unit": "count"}, {"measurement": "Count value (average of five samples)", "setting": "[13]", "value": 668000, "unit": "count"}, {"measurement": "Count value (average of five samples)", "setting": "[14]", "value": 410000, "unit": "count"}]}]}
